Source: patent publication US20250026813A1 (published 2025)

What was measured:
[1] = target: SARS-CoV-2 spike protein bearing furin mutation and truncation in retention sequence, on pseudovirus (SARS-CoV-2, UniProt P0DTC2 14-1255); test: cell-based or functional assay
[2] = target: T1, S1 subunit of the SARS-CoV-2 spike protein (Sino Biological 40591-V08H), His tag (SARS-CoV-2, UniProt P0DTC2 16-685)
T1 construct: domain: S1 subunit

[3] = target: full-length stabilised spike trimer protein of SARS-CoV-2 virus (in-house, soluble ECD with trimeris (SARS-CoV-2, UniProt P0DTC2 14-1208; P10104 458-484)

Row | Binder | pseudovirus neutralisation IC50 [1] [nM] | HTRF deltaF [2] [deltaF] | HTRF deltaF [3] [deltaF]
1 | YANG-2111 (antibody, V domains shown) VH: GVQLVESGGGLVQPGRSLRLSCAASGFTFDDYALHWVRQVPGKGLEWVSSISWNSDDLGYADSVEGRFTISRDNAKNSLYLQMSSLRTEDTALYYCVKDTRAHYDILAGYRGLDSWGQGTLVTVSS VL: DIVMTQSPLSLPVTPGEPASISCRSTQSLLHSNGYNFLDWYLQKPGQSPQLLIYLGSNRASGVPDRFSGSGSGTDFSLKISRVEAEDIGIYYCIQGLQTPITFGQGTRLEIK | 1.33 | – | –
2 | YANG-2107 (antibody, V domains shown) VH: QVQLQESGPGLVKPSGTLSLTCAVSGGSIRSSNWWIWVRQSPGKGLEWIGEIYHGGNTNYNPSLKSRVTLSVDKSKNQFSLKLSSVTAADTAVYYCARALYDIGGVFDIWGQGTMVTVSS VL: QSALTQPASVSGSPGQSISISCTGTSSDIGGYNYVSWYQQHPGKAPKLMIYDVSERPSGVSNRFSGSKSGNTASLTISGLQAEDEGDYYCCSYAANSNVVFGGGTKLSVL | 0.3 | – | –
3 | YANG-2108 (antibody, V domains shown) VH: QVQLQESGPGQVKPSGTLSLTCAVSGGSIRSSNWWIWVRQPPGKGLEWIGEIYHGGNTNYSPSLKSRVSISVDKSKNHFSLNLTSVTAADTAVYYCARALYDVGGVFDIWGQGTMVTVSS VL: QSALTQPASVSGSPGQSITISCTGSSSDVGGYNYVSWYQQHPGKAPKLMIYDVSERPSGVSNRFSGSKSGNTASLTISGLQAEDEGDYYCCSYAANSNVVFGGGTKLSVL | 0.27 | – | –
4 | YANG-1302 (antibody, V domains shown) VH: QVQLVESGGGAVQPGRSLRLSCRASGFTFSSFGMNWVRQVPGKGLVWVAGIWYDGRNKYYADSVKGRFTISRENSKNMLYLQMNSLRAEDTAVYYCARDQDSGFDGNWFGPWGQGTMVTVSS VL: SYELTQPPSMSVSPGQTASITCSGDNLGDKYVCWYQQRPGQSPVMVIFQDSTRPSGIPERFSGSNSGNTATLTISGTQAMDEADYYCQAWDSNTAVFGGGTKLTVL | 0.23 | – | –
5 | YANG-1401 (antibody, V domains shown) VH: QVHLQESGPGLVKPSGTLSLTCAVSGGSFSQINWWSWVRQSPGKGLEWIGEIYHSGSTNYNPSLKSRVTMSVDKSKNQFSLALNSVTAADTAVYYCARGYYGDNWFDSWGQGTLVTVSS VL: DIQMTQSPSSLSASIGDRVTITCRASQGISNWLVWYQQKPEKAPKSLIYAASSLQSGVPSRFSGSGSGTDFTLTISSLHPEDFATYYCQQYSDYPLTFGGGTKVEIK | 0.53 | – | –
6 | IMPI-006 (antibody, V domains shown) VH: QLQLQESGPGLVKPSETLSLTCTVSGGSISNSNYYWGWIRQPPGKGLEWIGSIYYSGRTYYNPSLKSRVTISVDTSKNQFSLKLSSVTAADTAVYYCARMGLLWFGEFYGMDVWGQGTTVTVSS VL: DIQMTQSPSSLSASVGDRVTITCRASQGISSWLAWYQQKPEKAPKSLIYDASSLQRGVPSRFSGSGSGTDFTLTISSLQPEDFASYYCQQYNSYPLTFGGGTRVEIK | – | 885 | 1060
7 | YANG-1301 (antibody, V domains shown) VH: QVQLVESGGGVVQPGRSLRLSCAASGFTFSSYGMHWVRQAPGKGLEWVAVIWYDGSNKFYADSVKGRFTISRDNSKNTLYLQMNSLKAEDTAVYYCARDTWIGESDTSWLDPWGQGTLVTVSS VL: not shown | 0.52 | – | –
8 | IMPI-059 (antibody, V domains shown) VH: EVQLVESGGGLIQPGGSLRLSCAASGFTVSSIYMSWVRQAPGKGLEWVSIIYSRGSTDYADSVKGRFTISRDISKNTLYLQMNSLRAEDTAVYYCARDGTMVRGVHAFDIWGQGTMVTVSS VL: DIQMTQSPPSLSASIGDRVTITCQASQDISNYLNWYQQKPGKAPKLLIYDASNLETGVPSRFSGSGSGTDFTLTISNLQPEDIVTYYCQQYDNLPSSFGQGTKLEIK | – | 569 | 403
9 | IMPI-017 (antibody, V domains shown) VH: EVQLVESGGGLIQPGGSLRLSCAAAGLTVSSNYMNWVRQVPGKGLEWVSVIYSGGSTYYADSVKGRFTISRDNSKNTLYLQMNSLRAEDTAVYYCARDLGTLGMDVWGQGTTVTVSS VL: DIQLTQSPSFLSASVGDRVTITCWASQGISTYLAWYQQKPGKAPKLLIYAASTLQSGVPSRFSGSGSGTEFTLTISSLQPEDFATYYCQQLNSYLPTFGQGTKVEIK | – | 752 | 550
10 | IMPI-037 (antibody, V domains shown) VH: not shown VL: DIQLTQSPSFLSASVGDRVTITCWASQGINSYLAWYQQKPGKAPKLLIYAASTLQSGVPSRFSGSGSGTEFTLTISSLQPEDFTTYYCQQFNDYPRTFGPGTKVEIK | – | 626 | 557
11 | YANG-1112 (antibody, V domains shown) VH: QITLKESGPTLVKPTQTLTLTCTFSGFSLSTGGVAVGWIRQPPGKALEWLAIIYWDDDKRYSPSLKSRLTITKDTSKNQVVLTMTNMDPVDTATYYCAHWGKDSFDIWGQGTMVTVSS VL: SYELTQPPSVSVSPGQTARITCSGDALPRKYAYWYQQKSGQAPVLVIYEDNNRPSGIPERFSGSSSGTTATLTVSGAQVEDEADYYCYSTDTSGYVVFGGGTKLTVL | 0.52 | – | –
12 | IMPI-055 (antibody, V domains shown) VH: QVQLVQSGAEVKKPGASVKVSCKASGYTFTSYDINWVRQATGQGLEWMGWMNPNSGNTGYAQKFQGRVTMTRDTSINTAYMELSSLRSEDTAVYFCARGGRYCSDVTCYSGEPFDYWGQGTLVTVSS VL: EIMLTQSPDFQSVTPKEKVTITCRASQSIGSSLHWYQQKPDQSPKLLIKFASQSISGVPSRFSGSGSGTDFTLTINSLEAEDAAAYYCHQSSSLPHTFGPGTKVEIK | – | 1030 | 551
13 | IMPI-027 (antibody, V domains shown) VH: QVQLQESGPGLVKPSQTLSLTCTVSGGSISSYGYYWNWIRQHPGKGLEWIGYIYYSGSTYYNPSLKSRVTISVDTSKNQLSLRLNSVSAADTAVYYCARDFGGNSNYFDYWGQGTLVTVSS VL: AIQLTQSPSSLSASVGDRVTITCRTSQGISSALAWYQQKPGKAPKLLIYDASSLESGVPSRFSGSGSGTDFTLTISSLQPEDFATYYCQQFNSYPLTFGGGTKVEIK | – | 755 | 800
14 | IMPI-022 (antibody, V domains shown) VH: EVQLVESGGGLVQPGRSLRLSCAASGFTFDDYAMHWVRQAPGKGLEWVSGITWNSGSIGYADSVKGRFTISRDNAKNSLYLHMNSLRVEDTALYYCAKDLQGDYYYYGVDVWGQGTTVTVSS VL: AIQLTQSPSSLSASVGDRVTITCRASQGISSALAWYQQKPGKAPKLLLYDASSLVSGVPSRFSGSRSGTDFTLTISSLQPEDFATYYCQQFISYPLTFGGGTRVEIK | – | -5.8 | 483
15 | IMPI-033 (antibody, V domains shown) VH: QVQLQESGPGLVKPSQTLSLTCTVSGGSISSYGYYWSWIRQHPGKGLEWIGYIYYSGSTYYNPSLKSRVTMSVDTSKNQLSLRLNSVSAADTAVYYCARDFGGNSNYFDYWGQGTLVTVSS VL: AIQLTQSPSSLSASVGDRVTITCRASQGISSALAWYQQKPGKAPNLLIYDASSLESGVPSRFSGSGSGTDFTLTISSLQPEDFATYYCQQFNSSPLTFGGGTKVEIK | – | 929 | 884
16 | IMPI-032 (antibody, V domains shown) VH: QVQLQESGPGLVKPSGTLSLTCAVSGGSISSNKWWSWVRQPPGKGLEWIGEIDHSGSTMYNPSLKSRVTISVDKSKNQFSLKLNSVTAADTAVYYCTGEGYNWNYWGQGTRVTVSS VL: DVVMTQSPLSLPVTLGQTASISCRSSQSLLYTDGNTYLSWFQQRPGQSPRRLIYKVSKWESGVPDRFSGSGSGTDFTLKISRVEAEDVGIYYCMQGTHWPLTFGGGTKVEIK | – | -8.9 | 218
17 | YANG-2203 (antibody, V domains shown) VH: QVQLVQSGAEVKQPGASVKVSCRASGYALTSFYVHWVRQAPGQGLEWMGIIKPSGGDTIYAQNLQGRVTMTRDTSTNTFYVELSSLRSEDTALYYCAISGNTRAFEIWGQGTMVTVSL VL: QSVLTQPPSVSAAPGQKVTISCSGSSSNIGNNFVSWYQQLPGMVPKLLIYANNKRPSGIPDRFSGSRSGTSATLGITGLQTGDEADYYCGTWDSSRSAVLFGGGTKMTVL | 5.45 | – | –
18 | YANG-2205 (antibody, V domains shown) VH: QIQLVQSGAEVKKPGASVKFSCKTSGYTFTSYYMVWVRQAPGQGLEWMGIIKPSGGNTIYAQKFQGRVTMTRDTSTNTVYMDLSSLRSEDTAVYYCARTGDRAFDVWGHGTMITVSS VL: QSVLTQPPSVSAAPGQKVTISCSGSSSNIGNNFVSWYQQFPGTAPKLLIYDNNKRPSGIPDRFSGSKSGTSATLGITGLQTGDEADYYCGTWDSSLGAGVFGGGTKLTVL | 3.35 | – | –
19 | YANG-2206 (antibody, V domains shown) VH: QIQLVQSGAEVKKPGASVKLSCKTSGYTFTSYYMVWVRQAPGQGLEWMGIIKPSGGNTIFAQKFQGRVTMTRDTSTNTVYMDLNSLRSEDTAVYYCARTGDRAFDVWGHGTMVTVSS VL: QSVLTQPPSVSAAPGQKVTISCSGSSSNIGNNYVSWYQQFPGTAPKLLIYDNNKRPSGIPDRFSGSKSGTSATLGITGLQTGDEADYYCGTWDSSLGAGVFGGGTKVTVL | 3.96 | – | –
20 | YANG-2204 (antibody, V domains shown) VH: QMQLVQSGAEVKKPGASVKFSCKTSGYTFTNYYMVWVRQAPGQGLEWMGIIKPSGGNTIYAQKFQGRVTMTRDTSTNTVYMDLTSLRSEDTAVYYCARTGDRAFDVWGQGTMVTVSS VL: QSVLTQPPSVSAAPGQKVTISCSGSSSNIGNNYVSWYQQLPGTAPKLLIYDNNKRPSGIPDRFSGSKSGTSATLGITGLQTGDEADYYCGTWDSSLGAGVFGGGTKLTVL | 3.3 | – | –
21 | YANG-2207 (antibody, V domains shown) VH: QMQLVQSGAEVKKPGASVKISCKTSGYTFTNYYMVWVRQAPGQGLEWMGIIKPSGGNTIYAQKFQGRVTMTRDTSTNTVYLDLSSLRSEDTAVYYCARTGNRAFDVWGHGTMVTVSS VL: QSVLTQPPSVSAAPGQKVTISCSGSSSNIGNNFVSWYQQFPGTAPKLLIYDNNKRPSGIPDRFSGSKSGTSATLGITGLQTGDEADYYCGTWDSSLGAGVFGGGTKLTVL | 2.59 | – | –
